Source: patent US20230383269A1 (DSM AUSTRIA, published 2023)

B1: alpha/beta hydrolase variant of SEQ ID NO: 24 (F69Y, N167T, F168Y, S174C, D179E, A182C, A183R, K186R, A187R, F218Y) (enzyme)
chain: MTDQSPETRDIFVPHAFEEQQVDLGEVVMNYVEAGSADHPALLLLPEQTGSWWSYEPVIGLLAESFHVYAVDIRGQGRSTWTPKRYSLDNFGNDLVRFISLVVKRPVIVSGNSSGGVLAAWLSAYAMPGQIRAALCEDTPFFASELVPAHGHSVRQAAGPAFELYRTYLGDQWCVADWEGFCRAARRSPSKIMSLFPSSDEPPQNLKEYDPEWARAFYEGTVALHCPHDLMLSQVKTPILITHHARAVDPHSGDLLGALSDFQAERAQAIIESAGVPVEYASFPDALHMMHQFEPERFAEVLTSWVARLPADTPGAHHHHHH
notes: homo-tetramer; also called zearalenone-cleaving polypeptide
B2: alpha/beta hydrolase variant of SEQ ID NO: 25 (A126S, N167T, F168Y, S174C, D179E, A182C, A183R, K186R, A187R, F218Y) (enzyme)
chain: MTDQSPETRDIFVPHAFEEQQVDLGEVVMNYVEAGSADHPALLLLPEQTGSWWSYEPVIGLLAESFHVFAVDIRGQGRSTWTPKRYSLDNFGNDLVRFISLVVKRPVIVSGNSSGGVLAAWLSAYSMPGQIRAALCEDTPFFASELVPAHGHSVRQAAGPAFELYRTYLGDQWCVADWEGFCRAARRSPSKIMSLFPSSDEPPQNLKEYDPEWARAFYEGTVALHCPHDLMLSQVKTPILITHHARAVDPHSGDLLGALSDFQAERAQAIIESAGVPVEYASFPDALHMMHQFEPERFAEVLTSWVARLPADTPGAHHHHHH
notes: as for B1
B3: alpha/beta hydrolase variant of SEQ ID NO: 27 (N167T, F168Y, S174C, D179E, A182C, A183R, K186R, A187R, F218Y, H225S) (enzyme)
chain: MTDQSPETRDIFVPHAFEEQQVDLGEVVMNYVEAGSADHPALLLLPEQTGSWWSYEPVIGLLAESFHVFAVDIRGQGRSTWTPKRYSLDNFGNDLVRFISLVVKRPVIVSGNSSGGVLAAWLSAYAMPGQIRAALCEDTPFFASELVPAHGHSVRQAAGPAFELYRTYLGDQWCVADWEGFCRAARRSPSKIMSLFPSSDEPPQNLKEYDPEWARAFYEGTVALSCPHDLMLSQVKTPILITHHARAVDPHSGDLLGALSDFQAERAQAIIESAGVPVEYASFPDALHMMHQFEPERFAEVLTSWVARLPADTPGAHHHHHH
notes: as for B1
B4: alpha/beta hydrolase variant of SEQ ID NO: 31 (N167T, F168Y, S174C, D179E, A182C, A183R, K186R, A187R, F218Y, A281E) (enzyme)
chain: MTDQSPETRDIFVPHAFEEQQVDLGEVVMNYVEAGSADHPALLLLPEQTGSWWSYEPVIGLLAESFHVFAVDIRGQGRSTWTPKRYSLDNFGNDLVRFISLVVKRPVIVSGNSSGGVLAAWLSAYAMPGQIRAALCEDTPFFASELVPAHGHSVRQAAGPAFELYRTYLGDQWCVADWEGFCRAARRSPSKIMSLFPSSDEPPQNLKEYDPEWARAFYEGTVALHCPHDLMLSQVKTPILITHHARAVDPHSGDLLGALSDFQAERAQAIIESAGVPVEYESFPDALHMMHQFEPERFAEVLTSWVARLPADTPGAHHHHHH
notes: as for B1
B5: alpha/beta hydrolase variant of SEQ ID NO: 30 (N167T, F168Y, S174C, D179E, A182C, A183R, K186R, A187R, F218Y, H251E) (enzyme)
chain: MTDQSPETRDIFVPHAFEEQQVDLGEVVMNYVEAGSADHPALLLLPEQTGSWWSYEPVIGLLAESFHVFAVDIRGQGRSTWTPKRYSLDNFGNDLVRFISLVVKRPVIVSGNSSGGVLAAWLSAYAMPGQIRAALCEDTPFFASELVPAHGHSVRQAAGPAFELYRTYLGDQWCVADWEGFCRAARRSPSKIMSLFPSSDEPPQNLKEYDPEWARAFYEGTVALHCPHDLMLSQVKTPILITHHARAVDPESGDLLGALSDFQAERAQAIIESAGVPVEYASFPDALHMMHQFEPERFAEVLTSWVARLPADTPGAHHHHHH
notes: as for B1
B6: alpha/beta hydrolase variant of SEQ ID NO: 29 (N167T, F168Y, S174C, D179E, A182C, A183R, K186R, A187R, F218Y, A245V) (enzyme)
chain: MTDQSPETRDIFVPHAFEEQQVDLGEVVMNYVEAGSADHPALLLLPEQTGSWWSYEPVIGLLAESFHVFAVDIRGQGRSTWTPKRYSLDNFGNDLVRFISLVVKRPVIVSGNSSGGVLAAWLSAYAMPGQIRAALCEDTPFFASELVPAHGHSVRQAAGPAFELYRTYLGDQWCVADWEGFCRAARRSPSKIMSLFPSSDEPPQNLKEYDPEWARAFYEGTVALHCPHDLMLSQVKTPILITHHVRAVDPHSGDLLGALSDFQAERAQAIIESAGVPVEYASFPDALHMMHQFEPERFAEVLTSWVARLPADTPGAHHHHHH
notes: as for B1
B7: alpha/beta hydrolase variant of SEQ ID NO: 33 (N167T, F168Y, S174C, D179E, A182C, A183R, K186R, A187R, F218Y, S293S) (enzyme)
chain: MTDQSPETRDIFVPHAFEEQQVDLGEVVMNYVEAGSADHPALLLLPEQTGSWWSYEPVIGLLAESFHVFAVDIRGQGRSTWTPKRYSLDNFGNDLVRFISLVVKRPVIVSGNSSGGVLAAWLSAYAMPGQIRAALCEDTPFFASELVPAHGHSVRQAAGPAFELYRTYLGDQWCVADWEGFCRAARRSPSKIMSLFPSSDEPPQNLKEYDPEWARAFYEGTVALHCPHDLMLSQVKTPILITHHARAVDPHSGDLLGALSDFQAERAQAIIESAGVPVEYASFPDALHMMHQSEPERFAEVLTSWVARLPADTPGAHHHHHH
notes: as for B1
B8: alpha/beta hydrolase variant of SEQ ID NO: 26 (T139P N167T, F168Y, S174C, D179E, A182C, A183R, K186R, A187R, F218Y) (enzyme)
chain: MTDQSPETRDIFVPHAFEEQQVDLGEVVMNYVEAGSADHPALLLLPEQTGSWWSYEPVIGLLAESFHVFAVDIRGQGRSTWTPKRYSLDNFGNDLVRFISLVVKRPVIVSGNSSGGVLAAWLSAYAMPGQIRAALCEDPPFFASELVPAHGHSVRQAAGPAFELYRTYLGDQWCVADWEGFCRAARRSPSKIMSLFPSSDEPPQNLKEYDPEWARAFYEGTVALHCPHDLMLSQVKTPILITHHARAVDPHSGDLLGALSDFQAERAQAIIESAGVPVEYASFPDALHMMHQFEPERFAEVLTSWVARLPADTPGAHHHHHH
notes: as for B1
B9: alpha/beta hydrolase variant of SEQ ID NO: 3 (N167T) (enzyme)
chain: MTDQSPETRDIFVPHAFEEQQVDLGEVVMNYVEAGSADHPALLLLPEQTGSWWSYEPVIGLLAESFHVFAVDIRGQGRSTWTPKRYSLDNFGNDLVRFISLVVKRPVIVSGNSSGGVLAAWLSAYAMPGQIRAALCEDTPFFASELVPAHGHSVRQAAGPAFELYRTFLGDQWSVADWDGFAAAAKASPSKIMSLFPSSDEPPQNLKEYDPEWARAFFEGTVALHCPHDLMLSQVKTPILITHHARAVDPHSGDLLGALSDFQAERAQAIIESAGVPVEYASFPDALHMMHQFEPERFAEVLTSWVARLPADTPGAHHHHHH
notes: as for B1
B10: alpha/beta hydrolase variant of SEQ ID NO: 32 (N167T, F168Y, S174C, D179E, A182C, A183R, K186R, A187R, F218Y, L287T, M289S) (enzyme)
chain: MTDQSPETRDIFVPHAFEEQQVDLGEVVMNYVEAGSADHPALLLLPEQTGSWWSYEPVIGLLAESFHVFAVDIRGQGRSTWTPKRYSLDNFGNDLVRFISLVVKRPVIVSGNSSGGVLAAWLSAYAMPGQIRAALCEDTPFFASELVPAHGHSVRQAAGPAFELYRTYLGDQWCVADWEGFCRAARRSPSKIMSLFPSSDEPPQNLKEYDPEWARAFYEGTVALHCPHDLMLSQVKTPILITHHARAVDPHSGDLLGALSDFQAERAQAIIESAGVPVEYASFPDATHSMHQFEPERFAEVLTSWVARLPADTPGAHHHHHH
notes: as for B1
B11: alpha/beta hydrolase variant of SEQ ID NO: 28 (N167T, F168Y, S174C, D179E, A182C, A183R, K186R, A187R, F218Y L230R) (enzyme)
chain: MTDQSPETRDIFVPHAFEEQQVDLGEVVMNYVEAGSADHPALLLLPEQTGSWWSYEPVIGLLAESFHVFAVDIRGQGRSTWTPKRYSLDNFGNDLVRFISLVVKRPVIVSGNSSGGVLAAWLSAYAMPGQIRAALCEDTPFFASELVPAHGHSVRQAAGPAFELYRTYLGDQWCVADWEGFCRAARRSPSKIMSLFPSSDEPPQNLKEYDPEWARAFYEGTVALHCPHDRMLSQVKTPILITHHARAVDPHSGDLLGALSDFQAERAQAIIESAGVPVEYASFPDALHMMHQFEPERFAEVLTSWVARLPADTPGAHHHHHH
notes: as for B1

Molecular target: the molecule itself
Experiment: Blue-Native-PAGE, oligomeric conformation (self-association of identical chains)
Source text: Comparison of the native molecular weight (oligomeric conformation) between single purified zearalenone-cleaving polypeptides was done via Blue-Native-PAGE. Dilutions of the elutes were supplied with not denaturating loading dye (e.g. 2× loading dye: 0.126 M tris(hydroxymethyl)aminomethan/hydrochloric acid pH 6.8, 20.0% glycerol, 4.0% Coomassie Blue G-250) and separated on a 4-15% polyacrylamid gel under native conditions (e.g. Mini-PROTEAN® Tetra Cell System, 1658004EDU+4-15% Mini-PROTEAN® TGX™ Precast Protein Gels, 4561083EDU, Bio-Rad Laboratories GmbH) (5× Anode Buffer: 0.125 M Tris(hydroxymethyl)aminomethane, 0.960 M Glycine, 1× Kathode Buffer: Anode Buffer+0.02% Coomassie Blue G250; 200 V, 40 minutes). The peptide bands were visualized by Coomassie staining. The oligomeric state of selected zearalenone-cleaving polypeptides was determined by size exclusion chromatography, SEC-MALS or X-Ray crystallography. Homo-dimers (e.g. SEQ ID NO. 1) migrated faster across the BN-PAGE gel matrix, while homo-tetramers (e.g. SEQ ID NO. 2-35) were retained in the gel matrix to a higher extent. The oligomeric conformation of the zearalenone-cleaving polypeptides was determined relatively to the migration of homo-dimeric and homo-tetrameric peptides.

Binding result, binds:
B1
B2
B3
B4
B5
B6
B7
B8
B9
B10
B11
